Test results published in article PMC9582721, “Hepatitis C virus nonstructural protein NS3 unfolds viral G-quadruplex RNA structures”.

Experiments:
[1] = target: T1, NS3 (nonstructural protein 3, protease-helicase) (Hepatitis C virus genotype 1b (con1b), UniProt Q9WMX2 1027-1657); assay: fluorescence anisotropy; 100 mM KCl; 25 mM MOPS pH 6.5, 100 mM KCl, 0.1 mM EDTA, 2 mM beta-mercaptoethanol, 0.1 mg/ml BSA, 37 C, 30 min; RNA 2 nM unless stated, folded in 100 mM KCl; settings: protein: recombinant, label: 3'-6FAM
[2] = target: T1, NS3 (nonstructural protein 3, …); assay: fluorescence anisotropy; 100 mM KCl; same data, two-sites fit, Kd1; 25 mM MOPS pH 6.5, 100 mM KCl, 0.1 mM EDTA, 2 mM beta-mercaptoethanol, 0.1 mg/ml BSA, 37 C, 30 min; RNA 2 nM unless stated, folded in 100 mM KCl; settings: protein: recombinant; label: 3'-6FAM; single-stranded
[3] = target: T1, NS3 (nonstructural protein 3, …); assay: fluorescence anisotropy; 100 mM KCl; quadratic fit; 25 mM MOPS pH 6.5, 100 mM KCl, 0.1 mM EDTA, 2 mM beta-mercaptoethanol, 0.1 mg/ml BSA, 37 C, 30 min; RNA 2 nM unless stated, folded in 100 mM KCl; settings: protein: recombinant; label: 3'-6FAM; single-stranded
[4] = target: T1, NS3 (nonstructural protein 3, …); assay: fluorescence anisotropy; 100 mM KCl; 6 nM RNA; 25 mM MOPS pH 6.5, 100 mM KCl, 0.1 mM EDTA, 2 mM beta-mercaptoethanol, 0.1 mg/ml BSA, 37 C, 30 min; RNA 2 nM unless stated, folded in 100 mM KCl; settings: protein: recombinant; label: 3'-6FAM; parallel G4 with 3' overhang 20 nt
[5] = target: T1, NS3 (nonstructural protein 3, …); assay: fluorescence anisotropy; 100 mM KCl; 5.4 nM RNA; 25 mM MOPS pH 6.5, 100 mM KCl, 0.1 mM EDTA, 2 mM beta-mercaptoethanol, 0.1 mg/ml BSA, 37 C, 30 min; RNA 2 nM unless stated, folded in 100 mM KCl; settings: protein: recombinant; label: 3'-6FAM; parallel G4 with 3' overhang 20 nt

T1 sequence (Q9WMX2 1027-1657): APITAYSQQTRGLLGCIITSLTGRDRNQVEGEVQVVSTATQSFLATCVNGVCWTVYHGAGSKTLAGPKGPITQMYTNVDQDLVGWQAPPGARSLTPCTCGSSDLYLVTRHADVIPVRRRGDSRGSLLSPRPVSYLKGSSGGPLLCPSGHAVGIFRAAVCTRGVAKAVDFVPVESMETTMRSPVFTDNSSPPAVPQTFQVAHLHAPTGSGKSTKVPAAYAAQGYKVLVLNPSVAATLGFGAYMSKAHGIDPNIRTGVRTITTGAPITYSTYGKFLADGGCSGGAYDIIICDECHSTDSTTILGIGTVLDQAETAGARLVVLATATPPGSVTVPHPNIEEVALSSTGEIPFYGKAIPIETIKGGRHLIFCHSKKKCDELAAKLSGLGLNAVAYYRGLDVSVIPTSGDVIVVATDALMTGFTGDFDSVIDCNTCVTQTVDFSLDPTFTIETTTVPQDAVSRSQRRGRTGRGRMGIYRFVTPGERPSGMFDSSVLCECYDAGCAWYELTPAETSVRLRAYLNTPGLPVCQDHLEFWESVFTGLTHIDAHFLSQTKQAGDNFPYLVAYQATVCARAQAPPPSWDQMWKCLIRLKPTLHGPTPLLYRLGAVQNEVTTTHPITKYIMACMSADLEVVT

AAGGGUGGGUGGGUGGGAA (structured_RNA) [NONHCVG4]
Kd ([1]; parallel G4 (three-tetrad)): 23 ± 7 nM

AAAAAAAAAAAAAAAAAAAA (ssRNA) [A20]
Kd [2]: 4.9 nM | Kd [3]: 6 ± 1 nM

AAGGGCUGCGGGUGGGCAGGGAAAAAAAAAAAAAAAAAAAA (structured_RNA) [HCVG4-A20]
Kd [4]: 11 ± 3 nM

AAGGGAGGGGGGGUCCUGGAGGAA (structured_RNA) [NEGG4]
Kd ([1]; parallel G4 (two-tetrad)): 19 ± 5 nM

AAGGGUGGGUGGGUGGGAAAAAAAAAAAAAAAAAAAA (structured_RNA) [NONHCVG4-A20]
Kd [4]: 12 ± 3 nM

AAGGGCUGCGGGUGGGCAGGGAA (structured_RNA) [HCVG4]
Kd ([1]; parallel G4 (three-tetrad)): 17 ± 4 nM

AAGGGAGGGGGGGUCCUGGAGGAAAAAAAAAAAAAAAAAAAA (structured_RNA) [NEGG4-A20]
Kd [5]: 6 ± 2 nM
